The subject of the assay is RED STAR yeast. Nature of the assay: Conventional simultaneous saccharification fermentation (SSF) of liquefied corn mash, ethanol yield by weight loss and HPLC. The class given is cell-based. Particulars: conventional SSF, 70 hours. As to the method:
Liquefied corn mash was used to evaluate the effect of adding salicylic acid (SA) to a known enzyme dosage of
The performance of these enzymes was compared to controls without salicylic acid addition. The experimental set-up used is described in table below.
5.5 g of RED STAR™ yeast was rehydrated in 100 mL distilled water and incubated at 32° C. for 30 minutes prior to the beginning of fermentation. Approximately 50 million cells/g DS of yeast were added to each of the fermentations.
The corn mash was thawed to room temperature. Urea and Penicillin were added to a final concentration of […] and 3 mg/L respectively. Small-scale (˜4 g) fermentations were carried out in 15 mL polypropylene tubes with five replicates for each experimental condition. The tubes were prepared by drilling a 1/32 inch (1.5 mm) hole and the empty tubes were then weighed before liquefied corn mash was added. The tubes were weighed again after mash was added to determine the exact weight of mash in each tube. This weight was used to calculate the enzyme dosage necessary as follows:
Enzyme was added according to dosage described in table above and 100 μl of rehydrated yeast were added to each tube to begin fermentation. Fermentation progress was followed by weighing the tubes over time for approximately 70 hours. Tubes were vortexed briefly before each weighing. […]

The text below walks through data of patent US20080145903A1, “PROCESSES OF PRODUCING FERMENTATION PRODUCTS” (priority 2006, published 2008).

B1: Aspergillus niger GA: Aspergillus niger G1 glucoamylase disclosed in Boel et al., 1984, EMBO J. 3 (5): 1097-1102 (protein, UniProt P69328 25-640, looked up)
Glucoamylase: ATLDSWLSNEATVARTAILNNIGADGAWVSGADSGIVVASPSTDNPDYFYTWTRDSGLVLKTLVDLFRNGDTSLLSTIENYISAQAIVQGISNPSGDLSSGAGLGEPKFNVDETAYTGSWGRPQRDGPALRATAMIGFGQWLLDNGYTSTATDIVWPLVRNDLSYVAQYWNQTGYDLWEEVNGSSFFTIAVQHRALVEGSAFATAVGSSCSWCDSQAPEILCYLQSFWTGSFILANFDSSRSGKDANTLLGSIHTFDPEAACDDSTFQPCSPRALANHKEVVDSFRSIYTLNDGLSDSEAVAVGRYPEDTYYNGNPWFLCTLAAAEQLYDALYQWDKQGSLEVTDVSLDFFKALYSDAATGTYSSSSSTYSSIVDAVKTFADGFVSIVETHAASNGSMSEQYDKSDGEQLSARDLTWSYAALLTANNRRNSVVPASWGETSASSVPGTCAATSAIGTYSSVTVTSWPSIVATGGTTTTATPTGSGSVTSTSKTTATASKTSTSTSSTSCTTPTAVAVTFDLTATTTYGENIYLVGSISQLGDWETSDGIALSADKYTSSDPLWYVTVTLPAGESFEYKFIRIESDDSVEWESDPNREYTVPQACGTSTATVTDTWR
For B1, the “Ethanol yield after 70 hours fermentation determined by HPLC, With SA” value (SA dose 5.0 mM/gDS) was 117.67. For the same molecule, the “Ethanol yield after 70 hours fermentation determined by HPLC, without SA” value (no SA) is given as 113.74.
